Results from the supplement of paper PMC9112550, “Optimization of the antimicrobial peptide Bac7 by deep mutational scanning” (BMC Biology, 2022).

Test system: Escherichia coli TOP10
Test: shrunken log2 fold change of peptide-encoding DNA abundance (4.5 h post-induction vs induction); higher = less antimicrobial activity (less host growth inhibition)
Settings: time post-induction: 4.5 h; library: site-saturation at positions 5, 18, 19, 20
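Also: peptides expressed intracellularly from a pBAD plasmid library in pooled LB shake-flask culture, induced with 0.3% L-arabinose, DNA abundance read by NGS, three biological replicates, DESeq2 with apeglm shrinkage.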

| Sequence | shrunken log2 fold change |
| --- | --- |
| RRIRVRPPRLPRPRPRPEITPRP | -0.159 |
| RRIRFRPPRLPRPRPRPNDKPRP | -0.32 |
| RRIRFRPPRLPRPRPRPGYVPRP | -0.116 |
| RRIRGRPPRLPRPRPRPQRMPRP | 0.307 |
| RRIRERPPRLPRPRPRPPQYPRP | -0.517 |
| RRIRQRPPRLPRPRPRPYWTPRP | -0.496 |
| RRIRWRPPRLPRPRPRPRIRPRP | 0.0716 |
| RRIRMRPPRLPRPRPRPVAWPRP | 0.213 |
| RRIRMRPPRLPRPRPRPMDIPRP | 0.468 |
| RRIRQRPPRLPRPRPRPGLFPRP | -0.176 |
| RRIRNRPPRLPRPRPRPPLAPRP | 0.697 |
| RRIRQRPPRLPRPRPRPGWYPRP | 0.126 |
| RRIRTRPPRLPRPRPRPAQHPRP | 0.0266 |
| RRIRMRPPRLPRPRPRPVCDPRP | 0.367 |
| RRIRERPPRLPRPRPRPTAEPRP | 0.265 |
| RRIRNRPPRLPRPRPRPAWKPRP | 0.122 |
| RRIRARPPRLPRPRPRPCIFPRP | 0.131 |
| RRIRKRPPRLPRPRPRPSGNPRP | 0.267 |
| RRIRGRPPRLPRPRPRPNNPPRP | -0.171 |
| RRIRARPPRLPRPRPRPDISPRP | 0.277 |
| RRIRMRPPRLPRPRPRPLTPPRP | 1.13 |
| RRIRRRPPRLPRPRPRPECYPRP | 0.368 |
| RRIRRRPPRLPRPRPRPFDLPRP | 0.0765 |
| RRIRDRPPRLPRPRPRPDCAPRP | 1.41 |
| RRIRDRPPRLPRPRPRPNDIPRP | -0.211 |

| Sequence | shrunken log2 fold change |
| --- | --- |
| RRIRIRPPRLPRPRPRPGWMPRP | 0.0116 |
| RRIRKRPPRLPRPRPRPPRLPRP | 0.678 |
| RRIRERPPRLPRPRPRPQQIPRP | -0.384 |
| RRIRIRPPRLPRPRPRPFMVPRP | -0.975 |
| RRIRLRPPRLPRPRPRPVMLPRP | -0.495 |
| RRIRARPPRLPRPRPRPSVPPRP | -0.179 |
| RRIRRRPPRLPRPRPRPWQCPRP | -0.0743 |
| RRIRCRPPRLPRPRPRPAIQPRP | -0.0767 |
| RRIRPRPPRLPRPRPRPAIWPRP | 0.405 |
| RRIRSRPPRLPRPRPRPNPKPRP | 0.0189 |
| RRIRIRPPRLPRPRPRPLMLPRP | -0.704 |
| RRIRYRPPRLPRPRPRPSGIPRP | -0.119 |
| RRIRGRPPRLPRPRPRPWDTPRP | 0.194 |
| RRIRFRPPRLPRPRPRPSNAPRP | -0.165 |
| RRIRDRPPRLPRPRPRPHDEPRP | 0.167 |
| RRIRARPPRLPRPRPRPYVVPRP | -0.623 |
| RRIRFRPPRLPRPRPRPHNYPRP | -0.633 |
| RRIRARPPRLPRPRPRPSIPPRP | -0.349 |
| RRIRVRPPRLPRPRPRPYHGPRP | -0.237 |
| RRIRERPPRLPRPRPRPHVPPRP | -0.0791 |
| RRIRARPPRLPRPRPRPPLYPRP | 0.606 |
| RRIRSRPPRLPRPRPRPMSTPRP | -0.13 |
| RRIRTRPPRLPRPRPRPNYIPRP | -0.74 |
| RRIRWRPPRLPRPRPRPANTPRP | -0.0364 |
| RRIRQRPPRLPRPRPRPKSAPRP | -0.0082 |

| Sequence | shrunken log2 fold change |
| --- | --- |
| RRIRHRPPRLPRPRPRPFDFPRP | -1.21 |
| RRIRFRPPRLPRPRPRPMRCPRP | 0.0196 |
| RRIRTRPPRLPRPRPRPEHKPRP | -0.0645 |
| RRIRVRPPRLPRPRPRPEAIPRP | -0.0125 |
| RRIRCRPPRLPRPRPRPKFWPRP | 0.449 |
| RRIRPRPPRLPRPRPRPEHAPRP | 0.197 |
| RRIRNRPPRLPRPRPRPCMVPRP | -0.69 |
| RRIRYRPPRLPRPRPRPYAEPRP | -0.193 |
| RRIRDRPPRLPRPRPRPIQMPRP | 0.137 |
| RRIRIRPPRLPRPRPRPQWYPRP | -0.485 |
| RRIRWRPPRLPRPRPRPFYMPRP | -0.297 |
| RRIRERPPRLPRPRPRPEPMPRP | -0.0016 |
| RRIRERPPRLPRPRPRPMCWPRP | 0.451 |
| RRIRVRPPRLPRPRPRPAPFPRP | 0.0259 |
| RRIRARPPRLPRPRPRPMYVPRP | -0.0341 |
| RRIRIRPPRLPRPRPRPLNSPRP | -0.652 |
| RRIRMRPPRLPRPRPRPQVEPRP | -0.00107 |
| RRIRIRPPRLPRPRPRPYLWPRP | -0.156 |
| RRIRMRPPRLPRPRPRPMRSPRP | 1.67 |
| RRIRMRPPRLPRPRPRPFSEPRP | 0.273 |
| RRIRRRPPRLPRPRPRPVYHPRP | -0.0449 |
| RRIRMRPPRLPRPRPRPCAWPRP | 0.513 |
| RRIRKRPPRLPRPRPRPKSWPRP | 0.308 |
| RRIRPRPPRLPRPRPRPSPIPRP | 0.335 |
| RRIRQRPPRLPRPRPRPVYCPRP | -0.155 |

| Sequence | shrunken log2 fold change |
| --- | --- |
| RRIRPRPPRLPRPRPRPAPMPRP | 0.284 |
| RRIRPRPPRLPRPRPRPACLPRP | 0.0505 |
| RRIRLRPPRLPRPRPRPRWHPRP | 0.199 |
| RRIRARPPRLPRPRPRPPFSPRP | 0.137 |
| RRIRYRPPRLPRPRPRPRIVPRP | -0.369 |
| RRIRERPPRLPRPRPRPYCMPRP | -1.06 |
| RRIRNRPPRLPRPRPRPYEAPRP | -0.143 |
| RRIRMRPPRLPRPRPRPFTDPRP | 0.174 |
| RRIRCRPPRLPRPRPRPDLDPRP | 0.0676 |
| RRIRSRPPRLPRPRPRPRKWPRP | 0.139 |
| RRIRRRPPRLPRPRPRPDYCPRP | -0.214 |
| RRIRVRPPRLPRPRPRPSMPPRP | -0.343 |
| RRIRGRPPRLPRPRPRPESMPRP | 1.19 |
| RRIRRRPPRLPRPRPRPTCAPRP | 0.502 |
| RRIRLRPPRLPRPRPRPMTHPRP | -0.22 |
| RRIRNRPPRLPRPRPRPVEQPRP | 0.0207 |
| RRIRWRPPRLPRPRPRPDDAPRP | 0.368 |
| RRIRPRPPRLPRPRPRPWFFPRP | -0.185 |
| RRIRMRPPRLPRPRPRPSSKPRP | 1.87 |
| RRIRFRPPRLPRPRPRPIVKPRP | -0.395 |
| RRIRDRPPRLPRPRPRPINNPRP | -1.21 |
| RRIRPRPPRLPRPRPRPRRIPRP | 0.252 |
| RRIRMRPPRLPRPRPRPRWKPRP | 0.214 |
| RRIRWRPPRLPRPRPRPMYRPRP | -0.233 |
| RRIRTRPPRLPRPRPRPYPIPRP | 0.00205 |

| Sequence | shrunken log2 fold change |
| --- | --- |
| RRIRARPPRLPRPRPRPVMPPRP | 0.457 |
| RRIRMRPPRLPRPRPRPKSPPRP | 0.325 |
| RRIRERPPRLPRPRPRPHYVPRP | -0.0222 |
| RRIRYRPPRLPRPRPRPNMRPRP | 0.117 |
| RRIRNRPPRLPRPRPRPMVRPRP | 4.1 |
| RRIRGRPPRLPRPRPRPANEPRP | -0.0603 |
| RRIRRRPPRLPRPRPRPLRVPRP | 0.966 |
| RRIRNRPPRLPRPRPRPRASPRP | 0.211 |
| RRIRTRPPRLPRPRPRPNDTPRP | -0.387 |
| RRIRRRPPRLPRPRPRPPLIPRP | 0.511 |
| RRIRTRPPRLPRPRPRPSDEPRP | -0.516 |
| RRIRFRPPRLPRPRPRPFERPRP | -0.0442 |
| RRIRKRPPRLPRPRPRPVIHPRP | -0.0677 |
| RRIRTRPPRLPRPRPRPKSSPRP | -0.0371 |
| RRIRKRPPRLPRPRPRPSWHPRP | -0.0776 |
| RRIRKRPPRLPRPRPRPKNAPRP | 0.216 |
| RRIRLRPPRLPRPRPRPLRCPRP | -0.0152 |
| RRIRERPPRLPRPRPRPLCHPRP | -0.0201 |
| RRIRYRPPRLPRPRPRPMFRPRP | -0.296 |
| RRIRYRPPRLPRPRPRPIPNPRP | -0.336 |
| RRIRPRPPRLPRPRPRPIHFPRP | -0.241 |
| RRIRRRPPRLPRPRPRPCHFPRP | -0.181 |
| RRIRARPPRLPRPRPRPNIHPRP | -0.333 |
| RRIRGRPPRLPRPRPRPNIEPRP | 0.51 |
| RRIRWRPPRLPRPRPRPQWRPRP | -0.0345 |
